The source of these data is paper PMC3765157 (PLoS ONE, 2013).

The data set concerns the molecule itself. Description: AUC.

B1: PrP-like ectodomain of mouse ZIP5 (Mm_ZIP5, residues 20-207), secreted from mammalian cells, deglycosylated (domain or fragment)
chain: WVGGSVPNLGPAEQEQNHYLAQLFGLYGENGTLTAGGLARLLHSLGLGRVQGLRLGHHEPPTGRAAPTSGDNFTHRLQEPELSVDIWAGMPLGPSGWGDQEESKAPDLHGSGPSSLDLFQRLLLLDHSLADHLNEDCLNGSQLLVNFGLSPVAPLTPRQFALLSPALLYQIDSRVCIKTPAPAPPGDV
notes: also called ZIP5 ectodomain; PrP-like ZIP5 ectodomain
Turning to B1, the “stoichiometry N” value was approximately 2.
